# Laboratory results from article PMC2175248.
# Biological target: myc–E4orf4 (adenovirus 2 (Ad2))
# Test: co-IP
substance,measurement,value
v-src (from UniProt P00524 1-526) (enzyme),percent of v-src of the P2 fraction recovered in myc–E4orf4 immune complexes,< 10%
